Laboratory results taken from patent US20040002442A1 (Bayer, published 2004).
Ends that are not written are not given here. * marks the point of attachment. Palmitoyl = CCCCCCCCCCCCCCCC(=O)*

T1: GLP-1 receptor present in the plasma membranes isolated from RINm5F cells (UniProt P32301 22-463, limits assumed)
T1 sequence (looked up): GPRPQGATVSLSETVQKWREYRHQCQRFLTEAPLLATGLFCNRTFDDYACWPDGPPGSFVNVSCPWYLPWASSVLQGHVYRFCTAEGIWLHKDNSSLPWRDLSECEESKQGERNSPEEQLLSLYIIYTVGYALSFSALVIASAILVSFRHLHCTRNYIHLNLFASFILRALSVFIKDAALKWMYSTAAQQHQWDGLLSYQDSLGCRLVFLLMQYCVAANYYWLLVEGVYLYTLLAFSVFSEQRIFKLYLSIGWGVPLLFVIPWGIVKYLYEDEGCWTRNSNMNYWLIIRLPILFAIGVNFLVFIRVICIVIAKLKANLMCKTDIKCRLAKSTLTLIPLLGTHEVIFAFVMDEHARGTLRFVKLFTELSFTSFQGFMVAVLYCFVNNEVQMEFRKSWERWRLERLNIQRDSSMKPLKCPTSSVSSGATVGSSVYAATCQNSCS


Key:
[1] = biological target: T1, GLP-1 receptor present in the plasma …; test: cell-based or functional assay
[2] = biological target: T2, glucagon receptor present in the plasma membranes isolated from rat liver (rat, UniProt P30082 27-485); test: cell-based or functional assay
[3] = biological target: T1, GLP-1 receptor present in the plasma …; test: 125I-GLP-1 displacement, RINm5F plasma membranes
Experimental: (§1) Competitive binding of some polypeptides of the invention to RINm5F cell plasma membranes was measured as follows. Ninety-six-well GF/C filtration plates (Millipore, Bedford, Ma.) were blocked with 0.3% PEI for at least one hour and washed twice with binding buffer consisting of 20 mM Tris, 2 mM EDTA, pH 7.5, 1 mg/ml BSA, and 1 mg/ml bacitracin. […] The plates were dried, scintillant was added to each well, and cpm per well determined using a Wallac Microbeta counter.

[4] = biological target: T2, glucagon receptor present in the plasma …; test: 125I-glucagon displacement, rat liver plasma membranes
Experimental: as §1, with “rat liver” for “RINm5F cell”, “0.1%” for “0.3%”

T2 sequence (P30082 27-485): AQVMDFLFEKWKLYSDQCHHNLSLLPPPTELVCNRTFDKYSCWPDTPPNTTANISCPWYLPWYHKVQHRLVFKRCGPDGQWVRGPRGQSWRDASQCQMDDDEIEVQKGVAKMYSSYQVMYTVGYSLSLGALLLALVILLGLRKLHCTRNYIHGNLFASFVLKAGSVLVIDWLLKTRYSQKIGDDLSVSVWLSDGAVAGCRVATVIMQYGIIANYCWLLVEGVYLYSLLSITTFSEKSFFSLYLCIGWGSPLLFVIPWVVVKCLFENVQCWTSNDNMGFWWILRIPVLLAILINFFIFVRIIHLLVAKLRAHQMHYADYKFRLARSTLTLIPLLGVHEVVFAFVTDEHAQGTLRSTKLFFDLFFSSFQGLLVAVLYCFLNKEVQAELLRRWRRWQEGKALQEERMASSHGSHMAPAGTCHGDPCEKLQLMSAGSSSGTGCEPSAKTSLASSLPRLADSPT

% GLP1 max, cAMP SPA in RINm5F cells [1] [%]	Relative Potency (%), cAMP SPA in RINm5F cells [1] [%]	% Inhib glucagon stimulated cAMP increase (10 uM peptide, rat hepatocytes) [2] [%]	IC50 [3] [nM]	IC50 [4] [nM]	Binder
98.1	13.4	31	2.2	69.3	HSQGTFTSDYAKYLDARRAKEFIAWLVKGR-NH2 [G27]
104	1.4		12.6	220	HSQGTFTSDYARYLDARRAREFIKWLVRGRGK(Palmitoyl) [G182]
109	69.9		0.5	243	HSQGTFTSDYSKYLEGQAAKEFIAWLVKGR-NH2 [G5]
112	6.9		6	6.6	HSQGTFTSDYSKYLDSRRAQDFVQWLVKGR-NH2 [G1]
91.2	58.1	35.2	8.2	154	HSQGTFTSDYAKYLDARRAKEFIAWLVKGRG [G51]
92.1	9.5	18.6	8.9	61.1	HSQGTFTSDYAKYLDARRAKEFIAWLVKGRC [G77]
88.7	8.4	23.7	4.4	21.7	HSQGTFTSDYAKYLDARRAKEFIAWLVCGRG [G74]
89.4	29.9	24.7	3.2	28.6	HSQGTFTSDYARYLDARRAREFIKWLVRGRG [G83]
90.5	0.6		159	663	HSQGTFTSDYARYLDARRAK(Palmitoyl)EFIKWLVRGRG (not fully specified; printed as HSQGTFTSDYARYLDARRAK(FA)EFIKWLVRGRG) [G183]
102	22.7	41.1	2.1	97.5	HSQGTFTSDYARYLDAKKAKEFIAWLVKGRG [G59]
113	6.2		56.1	347	HSQGTFTSDYARYLDARRAREFIKWLVRGRC(PEG22kD) [G2185]
97.1	29.9	30.2	8.1	33.6	HSQGTFTSDYARYLDARRAKEFIAWLVRGRG [G82]
95.7	22.3	21.8	13.8	682	HSQGTFTSDYAKYLDAAKAKEFIAWLVKGRG [G60]
118	2.3		109	350	HSQGTFTSDYAKYLDARRAKEFIAWLVKGRK(Palmitoyl) [G88]
93.3	4.3	11.3	5.8	25.6	HSQGTFTSDYAKYLDARRACEFIAWLVKGRG [G71]
93.7	1.8			65.5	HSQGTFTSDYAKYLDARRAKEFIAWLVKGRC(PEG22kD) [G277]
99	76.1	32.6	6.9	164	HSQGTFTSDYAKYLDAKKAKEFIAWLVKGRG [G58]
86.1	6.6	17.1	7.7	54	HSQGTFTSDYAKYLDARRAKEFIAWLVKCRG [G75]
114	61.8	25.2	1.4	11.7	HSQGTFTSDYARYLDARRAREFIAWLVKGRG [G84]
85	7.7	23	10.2	59.1	HSQGTFTSDYAKYLDARRAKEFIAWLVKGCG [G76]
98.3	0.7		248	547	HSQGTFTSDYARYLDARRAREFIKWLVRGRC(PEG43kD) [G4185]
83.5	0.8		25.4	726	HSQGTFTSDYARYLDARRAREFIK(Palmitoyl)WLVRGRG [G90]
104	13	32	4.5	48	HSQGTFTSDYARYLDARRAREFIKWLVRGRC [G185]
96	12.1	45.2	10.6	232	HSQGTFTSDYARYLDAAKAKEFIAWLVKGRG [G61]
